The values that follow come from article doi:10.1101/2024.09.18.613542 (bioRxiv, 2024).

What all share (test): ELISA
One assay addresses T1, RoxP_11-tagless (Cutibacterium porci (WP_154564006.1)).
T1 chain: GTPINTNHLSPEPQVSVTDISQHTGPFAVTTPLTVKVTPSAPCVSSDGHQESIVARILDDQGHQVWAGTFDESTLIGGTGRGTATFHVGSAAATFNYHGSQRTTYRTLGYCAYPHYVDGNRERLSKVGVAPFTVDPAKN

For another assay, the target named is T2, 8His-TEV-RoxP_1 (Cutibacterium acnes KPA171202).
T2 chain: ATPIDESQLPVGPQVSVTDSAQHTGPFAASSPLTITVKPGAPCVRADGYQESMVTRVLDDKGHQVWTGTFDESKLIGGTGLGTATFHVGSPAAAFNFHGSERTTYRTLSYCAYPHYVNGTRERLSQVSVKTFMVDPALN

For assay [1], the target named is T3, endogenous RoxP secreted by C. acnes strain KPA171202 (Cutibacterium acnes KPA171202, UniProt Q6A6F6).
Assay [2] deals with T4, endogenous RoxP secreted by C. acnes strain ATCC 6919 (Cutibacterium acnes ATCC 6919 …, UniProt Q6A6F6, strain).
Assay [3] deals with T3, endogenous RoxP secreted by C. acnes …. The source holds these as a separate data set.
In assay [4] the target is T4, endogenous RoxP secreted by C. acnes …. The source holds these as a separate data set.

Read-outs that look alike come from different tables or passages of the source.

B1: 3E10E3 (antibody, V domains shown)
VH: QVTLKESGPGILQPSQTLSLTCSFSGFSLSTYGIGVGWIRQPSGKGLEWLAHIWWNDNKYYNTALKSRLTISKDTSNNQVFLKIASVDTADTATYYCARSLPYFDYWGQGTTLTVSS
VL: DIQMTQSPASLSASVGETVTITCRASENIYSYLAWYQQKQGKSPQFLVYNAKTLAEGVPSRFSGSGSGTQFSLKINSLQPEDFGSYYCQHHYGIPRTFGGGTKLEIK
Turning to B1, the binding result in the assay with RoxP_11-tagless and with 8His-TEV-RoxP_1 was “binds” throughout.

B2: 4D8H1 (antibody, V domains shown)
VH: EVKLLESGGGLVQPGGSLKLSCAASGFDFSRYWMSWVRQAPGKGLEWIGEINPDSSTINYTPSLKDKFIISRDNAKNTLYLQMSKVRSEDTALYYCARYYSRFAYWGQGTLVTVSA
VL: QAVVTQESALTTSPGETVTLTCRSSTGAVTTRNYANWVQEKPDHLFTGLIGDTNNRAPGVPARFSGSLIGDKAALTITGAQTEDEAIYFCALWYSNHWVFGGGTKLTVL
With B2, the binding result in assay [1] is on record as “binds”; in assay [2] it was “binds”; with RoxP_11-tagless, “no binding (tested: 155 ng/mL)”; with 8His-TEV-RoxP_1, “binds”.

B3: 2H2F3 (antibody, V domains shown)
VH: QVQLQQSGAELVRPGVSVKISCKGSGYTFTDYAMHWVKQSHAKSLEWIGIISTYYGNASYNQKFKGKATMTVDKSSSTAYMELARLTSEDSAIYYCARVPYYGSSYAMDYWGQGTSVTVSS
VL: DVLMTQTPLSLPVSLGDQASISCRSSQNIVHSDGNTYLEWYLQKPGQSPKLLIYKVSNRFSGVPDRFSGSGSGTDFTLKISRVEAEDLGVYYCFQGSHVPWTFGGGTKLEIK
As for B3, the binding result with 8His-TEV-RoxP_1 is recorded as “binds”.

B4: biotinylated-2H2F3 (antibody, V domains shown)
VH: QVQLQQSGAELVRPGVSVKISCKGSGYTFTDYAMHWVKQSHAKSLEWIGIISTYYGNASYNQKFKGKATMTVDKSSSTAYMELARLTSEDSAIYYCARVPYYGSSYAMDYWGQGTSVTVSS
VL: DVLMTQTPLSLPVSLGDQASISCRSSQNIVHSDGNTYLEWYLQKPGQSPKLLIYKVSNRFSGVPDRFSGSGSGTDFTLKISRVEAEDLGVYYCFQGSHVPWTFGGGTKLEIK
With B4, the binding result in assay [3] and in assay [4] was “binds” each time.

B5: 5F3D11 (antibody, V domains shown)
VH: not shown
VL: DVVMTQTPLSLPVSLGDQASISCRSSQSLVHSNGNTYLHWYLQKPGQSPKLLIYKVSNRFSGVPDRFSGSGSGTDFTLKISRVEAEDLGVYFCSQSTHVPPTFGGGTKLEIK
Take B5: the binding result with 8His-TEV-RoxP_1 is “binds”.
